Paper PMC5971111 (Nature structural & molecular biology, 2018)

How the values were obtained:
Experiment in all cases: […]
Sec10 = target: T1, Sec10 (S. cerevisiae, UniProt Q06245 1-871)
T1 sequence: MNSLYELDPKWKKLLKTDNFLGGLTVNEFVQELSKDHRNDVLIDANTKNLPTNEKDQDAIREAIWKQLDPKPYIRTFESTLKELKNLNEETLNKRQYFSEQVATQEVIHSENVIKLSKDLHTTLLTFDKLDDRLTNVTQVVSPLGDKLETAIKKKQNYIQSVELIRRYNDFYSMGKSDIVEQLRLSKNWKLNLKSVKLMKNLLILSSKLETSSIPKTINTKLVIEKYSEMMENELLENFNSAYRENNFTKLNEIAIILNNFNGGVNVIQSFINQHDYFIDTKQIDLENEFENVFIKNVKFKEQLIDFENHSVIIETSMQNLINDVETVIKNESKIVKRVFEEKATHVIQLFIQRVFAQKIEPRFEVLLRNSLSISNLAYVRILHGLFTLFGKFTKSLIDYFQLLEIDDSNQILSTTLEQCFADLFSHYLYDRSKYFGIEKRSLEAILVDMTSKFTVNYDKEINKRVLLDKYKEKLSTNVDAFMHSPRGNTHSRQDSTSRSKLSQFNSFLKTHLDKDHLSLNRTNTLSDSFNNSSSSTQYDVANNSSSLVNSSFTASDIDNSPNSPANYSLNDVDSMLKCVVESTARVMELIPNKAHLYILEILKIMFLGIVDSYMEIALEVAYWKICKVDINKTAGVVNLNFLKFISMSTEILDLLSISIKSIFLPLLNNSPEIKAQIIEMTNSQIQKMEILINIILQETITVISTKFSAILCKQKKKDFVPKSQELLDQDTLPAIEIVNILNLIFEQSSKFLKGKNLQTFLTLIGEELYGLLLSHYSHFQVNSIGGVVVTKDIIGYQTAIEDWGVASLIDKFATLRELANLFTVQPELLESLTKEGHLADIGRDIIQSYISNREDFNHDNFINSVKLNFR

Sec5 = target: T2, Sec5 (S. cerevisiae, UniProt P89102 1-971)
T2 sequence: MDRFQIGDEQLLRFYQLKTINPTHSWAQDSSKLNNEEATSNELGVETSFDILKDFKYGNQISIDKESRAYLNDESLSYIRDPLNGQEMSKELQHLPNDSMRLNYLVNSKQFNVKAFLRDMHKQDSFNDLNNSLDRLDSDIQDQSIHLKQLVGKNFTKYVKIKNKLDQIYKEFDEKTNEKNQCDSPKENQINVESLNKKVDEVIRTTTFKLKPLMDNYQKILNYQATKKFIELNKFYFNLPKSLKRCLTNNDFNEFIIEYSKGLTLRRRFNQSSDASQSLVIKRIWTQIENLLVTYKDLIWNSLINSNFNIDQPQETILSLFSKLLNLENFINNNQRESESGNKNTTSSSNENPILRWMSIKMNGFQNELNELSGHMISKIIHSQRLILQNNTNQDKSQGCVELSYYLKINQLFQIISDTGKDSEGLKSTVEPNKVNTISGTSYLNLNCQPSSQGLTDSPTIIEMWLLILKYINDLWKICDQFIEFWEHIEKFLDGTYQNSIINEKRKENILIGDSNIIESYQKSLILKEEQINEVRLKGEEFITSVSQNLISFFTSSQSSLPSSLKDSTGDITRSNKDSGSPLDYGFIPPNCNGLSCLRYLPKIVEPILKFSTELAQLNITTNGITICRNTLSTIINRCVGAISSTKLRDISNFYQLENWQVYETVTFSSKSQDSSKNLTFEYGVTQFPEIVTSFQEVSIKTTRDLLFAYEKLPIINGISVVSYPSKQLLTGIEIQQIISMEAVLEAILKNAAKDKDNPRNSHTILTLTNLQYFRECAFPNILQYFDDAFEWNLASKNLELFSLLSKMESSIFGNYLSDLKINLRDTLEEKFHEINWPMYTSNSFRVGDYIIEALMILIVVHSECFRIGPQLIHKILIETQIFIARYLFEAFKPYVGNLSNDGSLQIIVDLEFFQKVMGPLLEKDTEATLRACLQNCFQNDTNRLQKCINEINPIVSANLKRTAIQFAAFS

Sec8 = target: T3, Sec8 (S. cerevisiae, UniProt P32855 1-1065)
T3 sequence: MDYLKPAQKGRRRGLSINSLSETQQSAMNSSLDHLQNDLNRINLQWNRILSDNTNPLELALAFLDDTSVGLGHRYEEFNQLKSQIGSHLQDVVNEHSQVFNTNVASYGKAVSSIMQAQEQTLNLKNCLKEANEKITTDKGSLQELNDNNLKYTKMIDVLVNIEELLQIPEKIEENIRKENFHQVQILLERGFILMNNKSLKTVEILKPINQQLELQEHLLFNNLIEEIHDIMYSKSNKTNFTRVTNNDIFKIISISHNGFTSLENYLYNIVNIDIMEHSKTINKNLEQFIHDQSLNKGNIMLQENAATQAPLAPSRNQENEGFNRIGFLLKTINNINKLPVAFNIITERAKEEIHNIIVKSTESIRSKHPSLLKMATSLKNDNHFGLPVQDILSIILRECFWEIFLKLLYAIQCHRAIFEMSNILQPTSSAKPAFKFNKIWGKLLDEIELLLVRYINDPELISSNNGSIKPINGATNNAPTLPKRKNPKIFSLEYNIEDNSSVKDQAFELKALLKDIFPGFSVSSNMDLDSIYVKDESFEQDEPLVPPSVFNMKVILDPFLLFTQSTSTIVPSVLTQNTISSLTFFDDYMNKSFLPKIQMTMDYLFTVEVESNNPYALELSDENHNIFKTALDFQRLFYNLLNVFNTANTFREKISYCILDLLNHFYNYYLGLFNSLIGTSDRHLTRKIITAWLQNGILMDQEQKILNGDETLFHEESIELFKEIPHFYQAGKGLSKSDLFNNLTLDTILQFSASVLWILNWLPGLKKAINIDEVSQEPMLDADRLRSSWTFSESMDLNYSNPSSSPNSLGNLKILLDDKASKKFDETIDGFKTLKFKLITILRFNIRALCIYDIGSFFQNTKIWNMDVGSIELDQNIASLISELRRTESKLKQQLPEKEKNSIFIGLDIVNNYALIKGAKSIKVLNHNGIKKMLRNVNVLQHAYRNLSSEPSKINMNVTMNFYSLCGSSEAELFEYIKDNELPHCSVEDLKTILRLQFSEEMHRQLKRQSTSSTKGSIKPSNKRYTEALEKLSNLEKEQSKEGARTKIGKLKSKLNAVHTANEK

Measured: binding result

B1: Exo84 (natural protein)
chain: MVEFSLKKARNNWKHVKKSASSPAKQKTPPSPAKPKQKTKKNPYSDLKDPATSYTLPTINARERSRVATSMQRRLSIHNTNYAPPTLDYSMPLPDMPNMIVPNDNVDSSHNNSSFTTENESVSSKGPSNSLNLSTADLSLNDSSYNKVPARSAMRNTVNPSGSNDPFNNSTSLRKMLANPHFNAKDFVHDKLGNASAITIDKFTSNLTDLSIQVQEEVKLNINKSYNEIMTVNNDLNVAMLELKRVRANINDLNEVLDQCTKIAEKRLQLQDQIDQERQGNFNNVESHSNSPALLPPLKAGQNGNLMRRDRSSVLILEKFWDTELDQLFKNVEGAQKFINSTKGRHILMNSANWMELNTTTGKPLQMVQIFILNDLVLIADKSRDKQNDFIVSQCYPLKDVTVTQEEFSTKRLLFKFSNSNSSLYECRDADECSRLLDVIRKAKDDLCDIFHVEEENSKRIRESFRYLQSTQQTPGRENNRSPNKNKRRSMGGSITPGRNVTGAMDQYLLQNLTLSMHSRPRSRDMSSTAQRLKFLDEGVEEIDIELARLRFESAVETLLDIESQLEDLSERISDEELMLLNLISLKIEQRREAISSKLSQSILSSNEIVHLKSGTENMIKLGLPEQALDLFLQNRSNFIQDLILQIGSVDNPTNYLTQLAVIRFQTIKKTVEDFQDIFKELGAKISSILVDWCSDEVDNHFKLIDKQLLNDEMLSPGSIKSSRKQIDGLKAVGLDFVYKLDEFIKKNSDKIR
binds: all assays above
